Reference: patent US20240132603A1 (HARBOUR BIOMED US, published 2024)
Like-named read-outs stand apart in the source and are kept apart here.

Tests used:
human CCR8 [1] = molecular target: T1, human CCR8 (human, UniProt P51685 1-355); assay: FACS on CHO-K1 cells overexpressing human CCR8
T1 construct: whole, on cells; construct used for the overexpressing cell lines is not described; also called hCCR8
Method: (§1) Cells overexpressing human CCR8 were digested with pancreatin, counted and resuspended to a cell density of 1E6 cells/mL. The cell suspension was added to a 96-well V-bottom plate at 100 μL/well and centrifuged at 300 g for 5 min, and the supernatant was discarded. The anti-CCR8 antibodies provided herein was used as a primary antibody and diluted in a 5-fold gradient with an FACS buffer (DPBS containing 2% FBS) from 200 nM. The diluted primary antibody was added at 100 μL/well to resuspend the cells, and the mixture was incubated at 4° C. for 1 h. The plate was washed twice with DPBS and centrifuged at 300×g for 5 min, and the supernatant was discarded. The secondary antibody diluted in a 1:1000 ratio with an FACS buffer was added at 100 μL/well to suspend the cells, and the mixture was incubated at 4° C. for 40 min. The plate was washed twice with DPBS and centrifuged at 300×g for 5 min, and the supernatant was discarded. DPBS was added at 200 μL/well to suspend the cells, and the mixture was loaded on an FACS machine for analysis.

cynomolgus monkey CCR8 [2] = molecular target: T2, cynomolgus monkey CCR8 (cynomolgus monkey, UniProt G7NYJ2 1-355); assay: FACS, CHO-K1-CynoCCR8 cells
T2 construct: whole, on cells; also called CynoCCR8
Outline: (§2)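 Anti-CCR8 antibodies titrated in 5-fold steps from 200 nM onto 1E6 cells/mL CHO-K1-CynoCCR8 in DPBS/2% FBS, 1 h at 4 °C. Bound antibody detected with 1:1000 secondary antibody, 40 min at 4 °C, then flow cytometry.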

human CCR8 [3] = molecular target: T1, human CCR8; assay: FACS, CHO-K1-hCCR8 cells
Outline: (§3)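 Primary Ab 5-fold titration from 200 nM (DPBS/2% FBS), 1 h 4 °C; secondary 1:1000, 40 min 4 °C; 2× DPBS washes; flow cytometry read-out.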

cynomolgus monkey CCR8 [4] = molecular target: T2, cynomolgus monkey CCR8; assay: FACS on CHO-K1 cells overexpressing cynomolgus monkey CCR8
Method: as §1, with “cynomolgus monkey CCR8, CHO-K1-CynoCCR8,” for “human CCR8”

human CCR8 [5] = molecular target: T1, human CCR8; assay: FACS, CHO-K1-hCCR8 cells; remark: listed apart in the source
Outline: as §3

TSPAN4-FLAG [6] = molecular target: T3, TSPAN4-FLAG (UniProt O14817 1-238, limits assumed); assay: flow cytometry, HEK293-TSPAN4 cells
T3 construct: whole, on cells; order of protein and tag unknown; also called HEK293-TSPAN4; not shown: FLAG tag
T3 sequence (looked up): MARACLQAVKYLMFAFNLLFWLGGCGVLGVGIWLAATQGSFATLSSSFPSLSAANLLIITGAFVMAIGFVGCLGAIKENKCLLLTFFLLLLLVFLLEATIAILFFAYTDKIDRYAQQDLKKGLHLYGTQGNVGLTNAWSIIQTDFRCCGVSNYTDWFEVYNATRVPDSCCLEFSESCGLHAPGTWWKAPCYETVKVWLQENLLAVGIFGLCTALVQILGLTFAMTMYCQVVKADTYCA

CD147 = molecular target: T4, CD147; assay: flow cytometry, HEK293-CD147 cells
T4 construct: also called HEK293-CD147

TSPAN12-FLAG [7] = molecular target: T5, TSPAN12-FLAG (UniProt O95859 1-305); assay: flow cytometry, HEK293-TSPAN12 cells
T5 construct: whole, on cells; order of protein and tag unknown; also called HEK293-TSPAN12; not shown: FLAG tag
T5 sequence (looked up): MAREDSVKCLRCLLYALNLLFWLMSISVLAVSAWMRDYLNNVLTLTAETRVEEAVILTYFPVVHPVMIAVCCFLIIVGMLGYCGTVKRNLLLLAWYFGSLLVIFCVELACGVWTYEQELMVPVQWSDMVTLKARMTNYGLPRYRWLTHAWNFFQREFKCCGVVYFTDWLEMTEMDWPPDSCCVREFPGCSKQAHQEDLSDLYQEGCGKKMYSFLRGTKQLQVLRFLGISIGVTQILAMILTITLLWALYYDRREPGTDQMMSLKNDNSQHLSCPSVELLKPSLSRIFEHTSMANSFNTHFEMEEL
Description: (§4) After that, HEK293 cells were transfected with commercial MMP16 (protein information can be found under Uniprot P51512), CD40LG (protein information can be found under Uniprot P29965), CD147 (protein information can be found under Uniprot P35612), TSPAN4 (protein information can be found under Uniprot 014817), and TSPAN12 (protein information can be found under Uniprot 095859) plasmids for further verification of the binding of PR005565, PR006275 and PR006276 to these proteins. […] However, the binding values of PR005565, PR006275 and PR006276 to MMP16, CD40LG, CD147, TSPAN4 and TSPAN12 after transfection of HEK293 cells were all consistent with the signal values of HEK293 cells themselves. Thus, PR005565, PR006275 and PR006276 had no non-specific binding to MMP16, CD40LG, CD147, TSPAN4 and TSPAN12 proteins (see Table 50).

CD40LG [8] = molecular target: T6, CD40LG (UniProt P29965 1-261); assay: flow cytometry, HEK293-CD40LG cells
T6 construct: whole, on cells; also called HEK293-CD40LG
T6 sequence (looked up): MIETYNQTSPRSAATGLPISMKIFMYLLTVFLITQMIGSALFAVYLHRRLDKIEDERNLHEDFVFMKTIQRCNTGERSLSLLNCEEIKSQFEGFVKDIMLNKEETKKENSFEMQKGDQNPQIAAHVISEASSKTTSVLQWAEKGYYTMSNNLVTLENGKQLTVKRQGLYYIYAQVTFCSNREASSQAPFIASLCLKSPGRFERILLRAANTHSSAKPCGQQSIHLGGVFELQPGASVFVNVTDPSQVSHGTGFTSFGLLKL

cynomolgus monkey CCR8 [9] = molecular target: T2, cynomolgus monkey CCR8; assay: FACS, CHO-K1-CynoCCR8 cells; remark: listed apart in the source
Outline: as §2

TSPAN12-FLAG [10] = molecular target: T5, TSPAN12-FLAG; assay: flow cytometry, transfected HEK293 cells
Description: as §4

TSPAN4-FLAG [11] = molecular target: T3, TSPAN4-FLAG; assay: flow cytometry, transfected HEK293 cells
Description: as §4

MMP16 [12] = molecular target: T7, MMP16 (UniProt P51512 120-607); assay: flow cytometry, transfected HEK293 cells
T7 construct: whole, on cells; also called HEK293-MMP16
Description: as §4

CD40LG [13] = molecular target: T6, CD40LG; assay: flow cytometry, transfected HEK293 cells
Description: as §4

MMP16 [14] = molecular target: T7, MMP16; assay: flow cytometry, HEK293-MMP16 cells

T2 sequence (G7NYJ2 entry or part of it): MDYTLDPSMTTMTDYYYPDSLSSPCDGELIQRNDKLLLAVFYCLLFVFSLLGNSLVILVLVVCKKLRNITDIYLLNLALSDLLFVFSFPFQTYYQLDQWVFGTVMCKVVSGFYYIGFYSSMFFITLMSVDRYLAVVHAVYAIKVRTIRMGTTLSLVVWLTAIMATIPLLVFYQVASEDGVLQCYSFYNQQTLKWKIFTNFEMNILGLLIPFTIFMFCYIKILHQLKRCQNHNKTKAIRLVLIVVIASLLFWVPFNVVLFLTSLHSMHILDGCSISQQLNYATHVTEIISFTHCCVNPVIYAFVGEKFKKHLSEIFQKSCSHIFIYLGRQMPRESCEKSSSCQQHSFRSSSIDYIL
T7 sequence (P51512 120-607): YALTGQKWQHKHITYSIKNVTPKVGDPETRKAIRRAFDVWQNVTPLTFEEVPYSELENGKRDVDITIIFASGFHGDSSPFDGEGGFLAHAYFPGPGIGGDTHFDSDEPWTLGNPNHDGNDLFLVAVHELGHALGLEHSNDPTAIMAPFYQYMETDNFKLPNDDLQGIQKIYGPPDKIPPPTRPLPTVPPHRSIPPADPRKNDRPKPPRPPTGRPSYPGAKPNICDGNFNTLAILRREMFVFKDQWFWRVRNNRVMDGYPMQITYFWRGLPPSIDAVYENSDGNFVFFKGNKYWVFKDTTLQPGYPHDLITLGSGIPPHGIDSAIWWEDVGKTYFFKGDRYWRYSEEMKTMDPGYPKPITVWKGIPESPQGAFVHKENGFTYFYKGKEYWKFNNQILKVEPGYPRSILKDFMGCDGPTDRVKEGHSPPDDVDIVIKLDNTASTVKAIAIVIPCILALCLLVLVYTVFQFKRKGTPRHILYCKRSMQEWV
T1 sequence (P51685 whole entry): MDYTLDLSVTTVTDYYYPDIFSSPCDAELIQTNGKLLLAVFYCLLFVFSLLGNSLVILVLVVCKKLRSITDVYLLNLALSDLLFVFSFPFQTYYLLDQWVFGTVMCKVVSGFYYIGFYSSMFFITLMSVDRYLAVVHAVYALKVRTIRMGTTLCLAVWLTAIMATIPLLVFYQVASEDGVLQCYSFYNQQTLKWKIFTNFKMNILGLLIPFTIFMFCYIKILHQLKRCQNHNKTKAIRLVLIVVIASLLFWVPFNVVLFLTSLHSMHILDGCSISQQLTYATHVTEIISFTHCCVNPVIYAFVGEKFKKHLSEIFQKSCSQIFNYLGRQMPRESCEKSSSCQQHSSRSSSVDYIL

B1: PR005171 (antibody, human IgG1, kappa, V domains shown)
VH: EVQLVESGGGLVQPKGSLKLSCAASGFTFNTYAMNWVRQAPGKGLEWVARIRSKSNNYATYYADSVKDRFTISRDDSQSMLYLQMNNLKTEDTAMYYCVRGKENGNYYAMDFWGQGTSVTVSA
VL: DIVMTQAAPSVPVTPGESVSISCRSSKSLLHSNGKIYLYWFLQRPGQSPQLLIYRMSNLASGVPDRFSGSGSGTAFTLRISRVEAEDVGVYYCMQHLEYPMTFGAGTKLEIKR
notes: heavy chain entry as PR004128
Q: Which “EC50 (read off the curve)” value (human CCR8 [1]) does the source give for B1 here?
A: ~1 nM

B2: PR005172 (antibody, human IgG1, kappa, V domains shown)
VH: EVQLVESGGGLVQPKGSLKLSCAASGFTFNTYAMNWVRQAPGKGLEWVARIRSKSNNYATYYADSVKDRFTISRDDSQSMLYLQMNNLKTEDTAMYYCVRGKENGNYYAMDFWGQGTSVTVSA
VL: DIVMTQAAPSVPVTPGESVSISCRSSKSLLHSNGKIYLYWFLQRPGQSPQLLIYRMSNLASGVPDRFSGSGSGTAFTLRISRVEAEDVGVYYCMQHLEYPVTFGAGTKLEIKR
notes: heavy chain entry as PR004128
Q: Which “EC50 (read off the curve)” value (human CCR8 [1]) does the source give for B2 here?
A: ~2 nM

B3: PR004668 (antibody, human IgG1, kappa)
heavy: not shown
light: DIVMTQSPLSLPVTPGEPASISCRSSKSLLHSNGKIYLYWFLQKPGQSPQLLIYRMSNLASGVPDRFSGSGSGTDFTLKISRVEAEDVGVYYCMQHLEYPLTFGQGTKLEIKRTVAAPSVFIFPPSDEQLKSGTASVVCLLNNFYPREAKVQWKVDNALQSGNSQESVTEQDSKDSTYSLSSTLTLSKADYEKHKVYACEVTHQGLSSPVTKSFNRGEC
notes: humanized; same VH/VL as PR004520, other heavy chain entry
Q: Which results are given for B3?
A: EC50 (cynomolgus monkey CCR8 [2]): 1.88 nM; EC50 (human CCR8 [3]): 0.62 nM; EC50 (read off the curve) (cynomolgus monkey CCR8 [4]): ~2 nM

B4: PR004970 (antibody, human IgG1, kappa, V domains shown)
VH: EVQLVESGGGLVQPGGSLRLSCAASGFTFSSYWMSWVPQAPGKGLEWVANIKQDGSAKFYVDSVKGRFTISRDNAKNSLYLQMNSLRAEDTAVYYCARSWGFAYWGQGTLVTVSS
VL: DIQMTQSPSSLSASVGDRVTITCRASQGISNYLAWYQQKPGKVPKLLIYAASTLQSGVPSRFSGSGSGTDFTLTISSLQPEDVATYYCQKYNSAPWTFGQGTKVEIKR
notes: fully human, from single cell clone screening
Q: Does B4 bind (human CCR8 [1])?
A: binds

B5: PR004342 (antibody, human IgG1, kappa, V domains shown)
VH: EVQLVESGGGLVQPKGSLKLSCAASGFTFNTYAMNWVRQAPGKGLEWVARIRSKSNNYATYYADSVKDRFTISRDDSQSMLYLQMNNLKTEDTAMYYCVRGKENGNYYAMDFWGQGTSVTVSA
VL: DIVMTQSPLSLPVTPGEPASISCRSSKSLLHSNGNTYLYWFLQKPGQSPQLLIYRMSNLASGVPDRFSGSGSGTDFTLKISRVEAEDVGVYYCMQHLEYPFTFGQGTKLEIKR
Q: How did the EC50 (human CCR8 [5]) turn out when B5 was run?
A: 0.8 nM

Q: Does B5 bind (cynomolgus monkey CCR8 [4])?
A: no binding (tested: 200 nM)

B6: PR004346 (antibody, human IgG1, kappa, V domains shown)
VH: EVQLVESGGGLVQPKGSLKLSCAASGFTFNTYAMNWVRQAPGKGLEWVARIRSKSNNYATYYADSVKDRFTISRDDSQSMLYLQMNNLKTEDTAMYYCVRGKENGNYYAMDFWGQGTSVTVSA
VL: DIVMTQSPLSLPVTLGQPASISCRSSKSLLHSNGNTYLYWFQQRPGQSPRLLIYRMSNLASGVPDRFSGSGSGTDFTLKISRVEAEDVGVYYCMQHLEYPFTFGQGTKLEIKR
Q: B6 was tested. Which EC50 (human CCR8 [5]) did it give?
A: 0.91 nM

Q: Does B6 bind (cynomolgus monkey CCR8 [4])?
A: no binding (tested: 200 nM)

B7: PR006276 (antibody, human IgG1, kappa)
heavy: not shown
light: DIVMTQSPLSLPVTLGQPASISCRSSKSLLHSNAKIYLYWFQQRPGQSPRLLIYRMSNLASGVPDRFSGSGSGTDFTLKISRVEAEDVGVYYCMQHLEYPLTFGQGTKLEIKRTVAAPSVFIFPPSDEQLKSGTASVVCLLNNFYPREAKVQWKVDNALQSGNSQESVTEQDSKDSTYSLSSTLTLSKADYEKHKVYACEVTHQGLSSPVTKSFNRGEC
Q: How did the MFI (TSPAN4-FLAG [6]) turn out when B7 was run?
A: 203

Q: What about the MFI (CD147) of the same binder?
A: 152

Q: And the MFI (TSPAN12-FLAG [7])?
A: 185

Q: What about the MFI (CD40LG [8]) of the same binder?
A: 152

Q: And the EC50 (cynomolgus monkey CCR8 [9])?
A: 0.51 nM

Q: What about the EC50 (human CCR8 [3]) of the same binder?
A: 0.4 nM

Q: Does B7 bind (TSPAN12-FLAG [10])?
A: no binding

Q: Does B7 bind (TSPAN4-FLAG [11])?
A: no binding

Q: Does B7 bind (MMP16 [12])?
A: no binding

Q: Does B7 bind (CD40LG [13])?
A: no binding

Q: And the MFI (MMP16 [14])?
A: 160

B8: PR006275 (antibody, human IgG1, kappa)
heavy: not shown
light: DIVMTQSPLSLPVTLGQPASISCRSSKSLLHSNAKIYLYWFQQRPGQSPRLLIYRMSNLASGVPDRFSGSGSGTDFTLKISRVEAEDVGVYYCMQHLEYPLTFGQGTKLEIKRTVAAPSVFIFPPSDEQLKSGTASVVCLLNNFYPREAKVQWKVDNALQSGNSQESVTEQDSKDSTYSLSSTLTLSKADYEKHKVYACEVTHQGLSSPVTKSFNRGEC
Q: Which results are given for B8?
A: MFI (TSPAN4-FLAG [6]): 424; MFI (CD147): 362; MFI (TSPAN12-FLAG [7]): 398; MFI (CD40LG [8]): 352; EC50 (cynomolgus monkey CCR8 [9]): 0.47 nM; EC50 (human CCR8 [3]): 0.38 nM; binding result (TSPAN12-FLAG [10]): no binding; binding result (TSPAN4-FLAG [11]): no binding; binding result (MMP16 [12]): no binding; binding result (CD40LG [13]): no binding; MFI (MMP16 [14]): 204
